Measured values from article PMC8015000, “FYN and ABL Regulate the Interaction Networks of the DCBLD Receptor Family” (Molecular & Cellular Proteomics : MCP, 2020).
Blank lines part the entries; values can stand above or below the binder they belong to.

Target: T1, DCBLD2-FLAG-MYC (full-length human Discoidin, CUB, and LCCL domain-containing protein 2) (human, UniProt Q96PD2 67-775)
T1 construct: DCBLD2, human, full-length cDNA in pCMV6-Entry (OriGene RC224483); Expressed alone or together with ABL-FLAG or FYN; also called ESDN; source: HEK 293, transfected, in lysate; immunoprecipitated (alpha-FLAG or alpha-MYC) for the zebrafish extract experiment and the far-Western; not shown: FLAG, C-terminal, kept; MYC, C-terminal, kept
T1 sequence (looked up): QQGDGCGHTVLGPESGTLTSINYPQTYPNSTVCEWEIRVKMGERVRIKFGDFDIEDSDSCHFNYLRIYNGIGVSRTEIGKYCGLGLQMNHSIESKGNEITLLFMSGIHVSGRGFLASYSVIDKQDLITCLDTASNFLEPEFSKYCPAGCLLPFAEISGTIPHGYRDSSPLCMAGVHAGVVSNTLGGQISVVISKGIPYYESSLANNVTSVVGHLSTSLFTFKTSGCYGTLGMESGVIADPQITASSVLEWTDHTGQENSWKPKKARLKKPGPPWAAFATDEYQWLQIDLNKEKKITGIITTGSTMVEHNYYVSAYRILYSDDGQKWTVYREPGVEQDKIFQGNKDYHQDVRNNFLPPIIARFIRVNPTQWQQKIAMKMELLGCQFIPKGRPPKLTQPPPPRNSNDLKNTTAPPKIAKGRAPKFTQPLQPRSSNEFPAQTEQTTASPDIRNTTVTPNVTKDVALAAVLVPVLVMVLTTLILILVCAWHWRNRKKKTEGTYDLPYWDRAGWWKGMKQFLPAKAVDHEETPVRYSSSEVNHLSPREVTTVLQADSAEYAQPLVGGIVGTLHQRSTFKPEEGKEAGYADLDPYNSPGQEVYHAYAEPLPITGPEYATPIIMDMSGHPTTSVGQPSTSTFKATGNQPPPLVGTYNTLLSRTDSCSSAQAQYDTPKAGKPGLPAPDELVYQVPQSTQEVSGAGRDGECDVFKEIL
Assay: pull-down; GST-14-3-3 fusions on GSH beads rocked at 4 C with lysates of 293 cells expressing DCBLD2-FLAG-MYC alone or with ABL-FLAG; washed 3x with BCLB; Western blotting (alpha-MYC for DCBLD2)
Conditions: one partner purified

- binding result: binds
B3: GST-14-3-3β (natural protein, UniProt P31946 1-246, looked up)
chain: MTMDKSELVQKAKLAEQAERYDDMAAAMKAVTEQGHELSNEERNLLSVAYKNVVGARRSSWRVISSIEQKTERNEKKQQMGKEYREKIEAELQDICNDVLELLDKYLIPNATQPESKVFYLKMKGDYFRYLSEVASGDNKQTTVSNSQQAYQEAFEISKKEMQPTHPIRLGLALNFSVFYYEILNSPEKACSLAKTAFDEAIAELDTLNEESYKDSTLIMQLLRDNLTLWTSENQGDEGDAGEGEN
notes: 14-3-3β, pGEX plasmid, gift of M. Yaffe; also called fusion of GSH S-transferase with 14-3-3β; source: E. coli, purified on glutathione resin (kept on the beads for pull-down; eluted with GSH and dialyzed for far-Western)

- binding result: binds
B4: GST-14-3-3σ (natural protein, UniProt P31947 1-248, looked up)
chain: MERASLIQKAKLAEQAERYEDMAAFMKGAVEKGEELSCEERNLLSVAYKNVVGGQRAAWRVLSSIEQKSNEEGSEEKGPEVREYREKVETELQGVCDTVLGLLDSHLIKEAGDAESRVFYLKMKGDYYRYLAEVATGDDKKRIIDSARSAYQEAMDISKKEMPPTNPIRLGLALNFSVFHYEIANSPEEAISLAKTTFDEAMADLHTLSEDSYKDSTLIMQLLRDNLTLWTADNAGEEGGEAPQEPQS
notes: 14-3-3σ, pGEX plasmid, gift of M. Yaffe; also called fusion of GSH S-transferase with 14-3-3σ; source: E. coli, purified on glutathione resin (kept on the beads for pull-down; eluted with GSH and dialyzed for far-Western)

Continued, binder first:

B1: GST-14-3-3ε (natural protein, UniProt P62258 1-255, looked up)
chain: MDDREDLVYQAKLAEQAERYDEMVESMKKVAGMDVELTVEERNLLSVAYKNVIGARRASWRIISSIEQKEENKGGEDKLKMIREYRQMVETELKLICCDILDVLDKHLIPAANTGESKVFYYKMKGDYHRYLAEFATGNDRKEAAENSLVAYKAASDIAMTELPPTHPIRLGLALNFSVFYYEILNSPDRACRLAKAAFDDAIAELDTLSEESYKDSTLIMQLLRDNLTLWTSDMQGDGEEQNKEALQDVEDENQ
notes: 14-3-3ε, pGEX plasmid, gift of M. Yaffe; also called fusion of GSH S-transferase with 14-3-3ε; source: E. coli, purified on glutathione resin (kept on the beads for pull-down; eluted with GSH and dialyzed for far-Western)
- binding result: binds

B2: GST-14-3-3ζ (natural protein, UniProt P63104 1-245, looked up)
chain: MDKNELVQKAKLAEQAERYDDMAACMKSVTEQGAELSNEERNLLSVAYKNVVGARRSSWRVVSSIEQKTEGAEKKQQMAREYREKIETELRDICNDVLSLLEKFLIPNASQAESKVFYLKMKGDYYRYLAEVAAGDDKKGIVDQSQQAYQEAFEISKKEMQPTHPIRLGLALNFSVFYYEILNSPEKACSLAKTAFDEAIAELDTLSEESYKDSTLIMQLLRDNLTLWTSDTQGDEAEAGEGGEN
notes: 14-3-3ζ, pGEX plasmid, gift of M. Yaffe; also called fusion of GSH S-transferase with 14-3-3ζ; source: E. coli, purified on glutathione resin (kept on the beads for pull-down; eluted with GSH and dialyzed for far-Western)
- binding result: binds
